From patent publication US20230234987A1

Tests used:
[1] = biological target: His-tagged PP1 (protein phosphatase 1, catalytic subunit); test: plate binding curve: biotinylated peptide on His-PP1 on nickel wells, streptavidin-Alexa Fluor 488
[2] = biological target: His-tagged PP1 (protein phosphatase 1, catalytic subunit); test: competition plate assay: MYPT1 1-299 binding to His-PP1 with increasing PIP250; competitor MYPT1 1-299
[3] = biological target: His-tagged PP1 (protein phosphatase 1, catalytic subunit); test: plate binding curve: MYPT1 1-299 on His-PP1 on nickel wells, streptavidin-Alexa Fluor 488
[4] = biological target: His-tagged PP1 (protein phosphatase 1, catalytic subunit); test: as above; remark: listed apart in the source

A Kd [1] of 610 µM and a Ki [2] of 155 µM were found for PIP250 (H-rrfkvktkkrk-NH2) (peptide) in this work.

A Kd [1] of 1280 µM was found for PIP251 (H-rrakvktkkrk-NH2) (peptide) in this work.

A Kd [1] of 724 µM was found for PIP252 (H-rrfkaktkkrk-NH2) (peptide) in this work.

A Kd [3] of 0.05 µM and a Kd [4] of 0.049 µM were found for amino acids 1-299 of MYPT1 in this work.
